The values that follow come from US20220153872A1 (MAB LEGEND BIOTECH, published 2022).

Experiment [1] addresses T1, human Factor XIa, activated form of coagulation factor XI (human, UniProt P03951 19-387; P03951 388-625).
T1 construct: also called FXIa; human FXIa
In words: ELISA. Background: An ELISA detects its analyte on a solid surface through an enzyme-linked reagent.

For experiment [2], the target named is T1, human Factor XIa, activated form of …. In words: cell-based or functional assay.
In another experiment the target is T2, human FXII (human, UniProt P00748 20-615).
T2 sequence (looked up): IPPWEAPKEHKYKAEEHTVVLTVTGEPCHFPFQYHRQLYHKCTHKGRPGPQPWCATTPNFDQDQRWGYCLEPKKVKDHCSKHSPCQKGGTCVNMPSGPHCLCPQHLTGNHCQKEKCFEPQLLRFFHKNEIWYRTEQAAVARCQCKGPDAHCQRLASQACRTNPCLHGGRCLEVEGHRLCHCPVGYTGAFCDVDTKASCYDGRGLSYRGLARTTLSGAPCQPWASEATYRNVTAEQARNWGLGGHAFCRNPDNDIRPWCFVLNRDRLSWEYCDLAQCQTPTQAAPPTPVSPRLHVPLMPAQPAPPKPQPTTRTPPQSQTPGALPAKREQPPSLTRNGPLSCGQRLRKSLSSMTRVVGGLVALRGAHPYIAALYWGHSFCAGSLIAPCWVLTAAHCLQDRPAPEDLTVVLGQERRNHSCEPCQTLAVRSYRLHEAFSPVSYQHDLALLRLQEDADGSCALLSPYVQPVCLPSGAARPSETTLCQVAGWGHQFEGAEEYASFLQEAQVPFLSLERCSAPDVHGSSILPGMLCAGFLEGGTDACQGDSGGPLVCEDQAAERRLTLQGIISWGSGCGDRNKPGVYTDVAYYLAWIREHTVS
In words: ELISA, antibody dilution series. The procedure:
(§1) In this example, the binding ability of coagulation factors PK, PKa, FXII, FXIIa, FIX, FIXa, FX, FXa, FVIIa, and Thrombin to antibodies at a series of diluted concentrations was analyzed using ELISA.

For another experiment, the target named is human FIX (human, UniProt P00740 47-461). The experiment in a line: ELISA, antibody dilution series. The procedure: as §1
The next experiment addresses human FIXa (human, UniProt P00740 47-191; P00740 227-461). In words: ELISA, antibody dilution series. The procedure:
as §1

For another experiment, the target named is human FX (human, UniProt P00742 41-488). In words: ELISA, antibody dilution series. The procedure: as §1
The next experiment concerns the target human FXa (human, UniProt P00742 41-179; P00742 235-488, limits assumed). In words: ELISA, antibody dilution series. As for the experimental part:
as §1

The target of a further experiment is T3, human FVIIa (human, UniProt P08709 61-212; P08709 213-466).
T3 sequence (looked up) 1: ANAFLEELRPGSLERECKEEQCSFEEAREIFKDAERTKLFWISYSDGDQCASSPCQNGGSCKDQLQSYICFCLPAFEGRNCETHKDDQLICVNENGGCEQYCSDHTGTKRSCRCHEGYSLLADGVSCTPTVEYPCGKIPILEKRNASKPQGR
T3 sequence (looked up) 2: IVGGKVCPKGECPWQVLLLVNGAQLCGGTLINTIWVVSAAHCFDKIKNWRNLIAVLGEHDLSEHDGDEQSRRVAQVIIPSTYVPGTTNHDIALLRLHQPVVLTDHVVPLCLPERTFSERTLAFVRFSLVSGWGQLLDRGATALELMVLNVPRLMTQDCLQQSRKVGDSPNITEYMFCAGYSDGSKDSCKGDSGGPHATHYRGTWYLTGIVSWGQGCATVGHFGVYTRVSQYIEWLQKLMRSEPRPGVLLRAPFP
In words: ELISA, antibody dilution series. The procedure:
as §1

The target in a further experiment is human Thrombin (human, UniProt P00734 328-363; P00734 364-622). The experiment in a line: ELISA, antibody dilution series. As for the experimental part: as §1
Another experiment addresses human PK (human, UniProt P03952 20-638). In words: ELISA, antibody dilution series. The procedure: as §1
The target in experiment [3] is T1, human Factor XIa, activated form of …. The experiment in a line: SPR, BIAcore T200, antibody captured on Protein A chip, FXIa as analyte, 1:1 Langmuir fit. As for the experimental part: (2) Sample testing conditions: The binding characteristics of FXIa and antibodies were preliminarily determined and evaluated in a manual mode. 10 nM was determined as the maximum analytical concentration of FXIa. […] During the sample analysis, the flow rate was set to be 30 μL/min, the binding time was 120 s, and the dissociation time was 600 s.
(3) Regeneration conditions: With reference to other experiments, preliminary determination and evaluation were performed in a manual mode. […] During the regeneration, the flow rate was set to be 30 μL/min, and the regeneration time was 30 s.
(4) Kinetic parameter determination: The experiment was carried out in a multi-cycle mode, in which the response signal took the analysis time as the horizontal coordinate and the response value as the vertical coordinate. The obtained data were fitted by BIAcore T200 analysis software, during which a 1:1 Langmuir binding model was used as a fitting model, so as to determine the kinetic constants such as an association rate constant, a dissociation rate constant, and an association-dissociation constant.
A general note: Surface plasmon resonance follows binding to a sensor surface in real time, without labels.

B1: anti-human FXIa full-length human monoclonal antibody 14624 (antibody, IgG1, V domains shown)
VH: QVQLVQSGAEVKKPGASVKVSCKVSGYTLTELSMHWVRQAPGKGLEWMGGFDPEDGETIYAQKFQGRVTMTEDTSTDTAYMELSSLRSEDTAVYYCATDRPVRGVIPYYYYYGMDVWGQGTLVTVSS
VL: QSALTQPPSASGTPGQTVTISCSGSRSNIGSRPVNWYQHLPGTAPKLLIYIDHQRPSGVPDRFSGSKSGTSASLAISGLQSDDEADYYCAAWDDSLDAYVFGTGTKVTVL
notes: Full-length IgG1 made in CHO cells
For the molecule B1, in experiment [1], the EC50 (as a rule, the concentration giving half of the maximal effect) was determined as 0.056 nM. In addition, in experiment [2], the “IC50 (nM), inhibition of human FXIa hydrolysis of S-2366” value was 47.3 nM. Besides, the binding result in the experiment with human FXII, with human FIX, with human FIXa, in the experiment with human FX, with human FXa and in the experiment with human FVIIa was “no binding” throughout. Besides, the binding result with human Thrombin and with human PK was “no binding” throughout. Moreover, in [3], binding was characterised by a dissociation constant (Kd) of 0.0231 nM. Besides, the koff – broadly, the rate constant with which the complex falls apart – in experiment [3] amounted to 0.00245 s⁻¹. Also, the kon – broadly, a measure of how fast the partners come together – in experiment [3] worked out at 1.06e+08 M⁻¹ s⁻¹.
